Laboratory results published in publication PMC7885266.

Target: 3TBP-CTPR6-foldon
Assay: co-sedimentation; co-precipitation assay: 10 μM hTNKS2 ARC1–3 mixed with an equal volume of CTPR protein (fixed or increasing concentrations) in 50 mM Tris-HCl, 150 mM NaCl, 0.5 mM TCEP, pH 7.3; 1 h at room temperature, 20 000g 30 min; supernatant and pellet on SDS-PAGE, band densities give the stoichiometry in the pellet

B1: Tankyrase-2 Ankyrin Repeat Clusters 1-3 (residues 2-485) (domain or fragment)
chain: SGRRCAGGGAACASAAAEAVEPAARELFEACRNGDVERVKRLVTPEKVNSRDTAGRKSTPLHFAAGFGRKDVVEYLLQNGANVQARDDGGLIPLHNACSFGHAEVVNLLLRHGADPNARDNWNYTPLHEAAIKGKIDVCIVLLQHGAEPTIRNTDGRTALDLADPSAKAVLTGEYKKDELLESARSGNEEKMMALLTPLNVNCHASDGRKSTPLHLAAGYNRVKIVQLLLQHGADVHAKDKGDLVPLHNACSYGHYEVTELLVKHGACVNAMDLWQFTPLHEAASKNRVEVCSLLLSYGADPTLLNCHNKSAIDLAPTPQLKERLAYEFKGHSLLQAAREADVTRIKKHLSLEMVNFKHPQTHETALHCAAASPYPKRKQICELLLRKGANINEKTKEFLTPLHVASEKAHNDVVEVVVKHEAKVNALDNLGQTSLHRAAYCGHLQTCRLLLSYGCDPNIISLQGFTALQMGNENVQQLLQEGI
Binder B1 has a stoichiometry N of 2.
